B1: [drawing CHEM-US-00042] (SEQ ID NO:192)(SEQ ID NO:192) (peptide)
peptide: TLREWISFC
modifications: also: further groups not given here
B2: SEQ ID NO:12 cyclized, F - (N-Me-Ala) (peptide)
peptide: CADGPTLREWIS[NMeA]C
modifications: disulfide 1-14 (inferred); not fully specified
B3: SEQ ID NO:12 cyclized, F - Thi (peptide)
peptide: CADGPTLREWIS[2Thi]C
modifications: disulfide 1-14 (inferred); not fully specified
B4: [drawing CHEM-US-00013] (SEQ ID NO:173) (peptide)
peptide: ADGPTLREWISFC
modifications: not fully specified; also: further groups not given here
B5: SEQ ID NO:12 cyclized, F - (3,4-di-Cl-Phe) (peptide)
peptide: CADGPTLREWIS[Phe(3,4-Cl2)]C
modifications: disulfide 1-14 (inferred); not fully specified
B6: [drawing CHEM-US-00041] (SEQ ID NO:191)(SEQ ID NO:191) (peptide)
peptide: PTLREWISFC
modifications: not fully specified; also: further groups not given here
B7: SEQ ID NO:12 cyclized, S - Abu (peptide)
peptide: CADGPTLREWI[Abu]FC
modifications: disulfide 1-14 (inferred); not fully specified
B8: [drawing CHEM-US-00035] (SEQ ID NO:173)(SEQ ID NO:173) (peptide)
peptide: ADGPTLREWISFC
modifications: also: further groups not given here
B9: SEQ ID NO:12 cyclized, F - Homo-Phe (peptide)
peptide: CADGPTLREWIS[hPhe]C
modifications: disulfide 1-14 (inferred); not fully specified
B10: SEQ ID NO:12 cyclized, F - (Pyridylala) (peptide)
peptide: CADGPTLREWIS[Pyridylala]C
modifications: not fully specified (bridges); also: cyclized, type not given here
B11: SEQ ID NO:12 cyclized, F - (DiPh - Ala) (peptide)
peptide: CADGPTLREWIS[DiPhAla]C
modifications: disulfide 1-14 (inferred); not fully specified
B12: [drawing CHEM-US-00038] (SEQ ID NO:190)(SEQ ID NO:190) (peptide)
peptide: GPTLREWISFC
modifications: not fully specified; also: further groups not given here
B13: SEQ ID NO:12 cyclized, S - [N-Me-Ser(Bzl)] (peptide)
peptide: CADGPTLREWI[NMeSer(Bzl)]FC
modifications: disulfide 1-14 (inferred); not fully specified
B14: [drawing CHEM-US-00036] (SEQ ID NO:173)(SEQ ID NO:173) (peptide)
peptide: ADGPTLREWISFC
modifications: also: further groups not given here
B15: SEQ ID NO:12 cyclized, F - (Phenylgly) (peptide)
peptide: CADGPTLREWIS[Phg]C
modifications: disulfide 1-14 (inferred); not fully specified
B16: SEQ ID NO:12 cyclized, F - (1-Nal) (peptide)
peptide: CADGPTLREWIS[1Nal]C
modifications: disulfide 1-14 (inferred); not fully specified
B17: SEQ ID NO:12 cyclized, F - (2-Nal) (peptide)
peptide: CADGPTLREWIS[2Nal]C
modifications: disulfide 1-14 (inferred); not fully specified
B18: [drawing CHEM-US-00027] / [drawing CHEM-US-00028] (SEQ ID NO:173) (peptide)
peptide: ADGPTLREWISFC
modifications: also: further groups not given here
B19: [drawing CHEM-US-00006] (SEQ ID NO:173) (peptide)
peptide: ADGPTLREWISFC
modifications: not fully specified; also: further groups not given here
B20: SEQ ID NO:12 cyclized, F - (Ser(Bzl)) (peptide)
peptide: CADGPTLREWIS[Ser(Bzl)]C
modifications: disulfide 1-14 (inferred); not fully specified
B21: SEQ ID NO:12 cyclized, F - (p-Cl-Phe) (peptide)
peptide: CADGPTLREWIS[Phe(4-Cl)]C
modifications: disulfide 1-14 (inferred); not fully specified
B22: SEQ ID NO:12 cyclized, F - (p-Nitrophe) (peptide)
peptide: CADGPTLREWIS[Phe(4-NO2)]C
modifications: disulfide 1-14 (inferred); not fully specified
B23: [drawing CHEM-US-00039] (SEQ ID NO:190)(SEQ ID NO:190) (peptide)
peptide: GPTLREWISFC
modifications: not fully specified; also: further groups not given here
B24: SEQ ID NO:12 cyclized, S - Aib (peptide)
peptide: CADGPTLREWI[Aib]FC
modifications: disulfide 1-14 (inferred); not fully specified
B25: [drawing CHEM-US-00040] (SEQ ID NO:191)(SEQ ID NO:191) (peptide)
peptide: PTLREWISFC
modifications: not fully specified; also: further groups not given here
B26: [drawing CHEM-US-00043] (SEQ ID NO:192)(SEQ ID NO:192) (peptide)
peptide: TLREWISFC
modifications: also: further groups not given here
B27: SEQ ID NO:12 cyclized, S - Nva (peptide)
peptide: CADGPTLREWI[Nva]FC
modifications: disulfide 1-14 (inferred); not fully specified
B28: SEQ ID NO:12 cyclized, S - (N-Me-Ala) (peptide)
peptide: CADGPTLREWI[NMeA]FC
modifications: disulfide 1-14 (inferred); not fully specified
B29: SEQ ID NO:12 cyclized, S - (N-Me-Val) (peptide)
peptide: CADGPTLREWI[NMeV]FC
modifications: disulfide 1-14 (inferred); not fully specified
B30: SEQ ID NO:12 cyclized, S - Sar (peptide)
peptide: CADGPTLREWI[Sar]FC
modifications: disulfide 1-14 (inferred); not fully specified
B31: SEQ ID NO:12 cyclized, S - (t-Bu-Gly) (peptide)
peptide: CADGPTLREWI[Tle]FC
modifications: disulfide 1-14 (inferred); not fully specified
B32: SEQ ID NO:12 cyclized, F - CHA (peptide)
peptide: CADGPTLREWIS[Cha]C
modifications: disulfide 1-14 (inferred); not fully specified
B33: SEQ ID NO:12 cyclized, S - (Nor-Leu) (peptide)
peptide: CADGPTLREWI[Nle]FC
modifications: disulfide 1-14 (inferred); not fully specified

*1 amine or outer side, *2 acyl side, *3 side chain or, on linkers, in order; H or OH if unused. Bridges are numbered along the chain shown (N, C = ends). Where no end group is shown, it is not given here. [ ]: non-standard residue; d: D form. NMeSer(Bzl) = N-methyl-O-benzyl-serine, CN([C@@H](COCc1ccccc1)C(=O)[*:2])[*:1]; Phe(4-NO2) = N[C@@H](Cc1ccc([N+](=O)[O-])cc1)C(=O)O; Phe(3,4-Cl2) = N[C@@H](Cc1ccc(Cl)c(Cl)c1)C(=O)O; DiPhAla = diphenylalanine (source's own name); Ser(Bzl) = O=C([C@H](COCc1ccccc1)N[*:1])[*:2]; Phe(4-Cl) = N[C@@H](Cc1ccc(Cl)cc1)C(=O)O; 1Nal = N[C@@H](Cc1cccc2ccccc12)C(=O)O; 2Nal = N[C@@H](Cc1ccc2ccccc2c1)C(=O)O; hPhe = N[C@@H](CCc1ccccc1)C(=O)O; 2Thi = N[C@@H](Cc1cccs1)C(=O)O; Cha = N[C@@H](CC1CCCCC1)C(=O)O; Phg = N[C@H](C(=O)O)c1ccccc1; Tle = CC(C)(C)[C@H](N)C(=O)O; NMeV = CN[C@H](C(=O)O)C(C)C; NMeA = CN[C@@H](C)C(=O)O; Nle = CCCC[C@H](N)C(=O)O; Nva = CCC[C@H](N)C(=O)O; Abu = CC[C@H](N)C(=O)O; Aib = CC(C)(N)C(=O)O; Sar = CNCC(=O)O

Chain of soluble TPO-R (P40238 26-491): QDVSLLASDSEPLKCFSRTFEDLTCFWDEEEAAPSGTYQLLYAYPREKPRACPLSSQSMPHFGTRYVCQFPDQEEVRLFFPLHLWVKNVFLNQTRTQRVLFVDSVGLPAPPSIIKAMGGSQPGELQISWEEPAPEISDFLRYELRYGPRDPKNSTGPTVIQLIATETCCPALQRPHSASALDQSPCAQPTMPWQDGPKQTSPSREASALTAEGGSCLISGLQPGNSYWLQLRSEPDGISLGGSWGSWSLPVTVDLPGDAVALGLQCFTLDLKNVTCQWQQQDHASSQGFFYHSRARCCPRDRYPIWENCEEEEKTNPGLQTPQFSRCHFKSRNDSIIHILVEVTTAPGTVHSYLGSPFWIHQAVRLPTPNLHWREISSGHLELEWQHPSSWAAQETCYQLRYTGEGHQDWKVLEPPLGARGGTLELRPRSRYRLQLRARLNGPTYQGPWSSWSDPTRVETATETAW

This assay has as its target soluble TPO-R (UniProt P40238). Nature of the assay: competition ELISA vs MBP-TPO156.
Consider B1, for which the IC50 stood at 200000 nM.

With B2, the concentration for half-maximal inhibition (IC50) was 200000 nM.

Take B3: the IC50 was less than 500 nM.

Take B4: the IC50 was less than 500 nM.

B5 displayed an IC50 of less than 500 nM.

Molecule B6 showed an IC50 of 200000 nM.

Take B7: the IC50 was less than 500 nM.

In turn, B8 yielded a 50% inhibitory concentration (IC50) of less than 500 nM.

With B9, the IC50 was less than 500 nM.

B10: the half-maximal inhibitory concentration (IC50) was less than 500 nM.

The molecule B11 had an IC50 of less than 500 nM.

As to B12, the IC50 is less than 500 nM.

B13 returned a concentration for half-maximal inhibition (IC50) of less than 200000 nM.

In turn, B14 came in with a half-maximal inhibitory concentration (IC50) of less than 500 nM.

On to B15, for which the IC50 is less than 500 nM.

Molecule B16 returned an IC50 of less than 500 nM.

B17 came in with a half-maximal inhibitory concentration (IC50) of less than 500 nM.

In turn, B18 yielded an IC50 of less than 500 nM.

Molecule B19 had an IC50 of 200000 nM.

The molecule B20 displayed an IC50 of less than 500 nM.

B21 showed a 50% inhibitory concentration (IC50) of less than 500 nM.

As to B22, the IC50 was less than 500 nM.

The molecule B23 came in with an IC50 of less than 200000 nM.

With B24, the IC50 was less than 500 nM.

B25 had a concentration for half-maximal inhibition (IC50) of less than 500 nM.

With B26, the IC50 came to 200000 nM.

Take B27: the half-maximal inhibitory concentration (IC50) was less than 500 nM.

The molecule B28 registered an IC50 of less than 200000 nM.

B29: the IC50 stood at 200000 nM.

Molecule B30 gave an IC50 of less than 500 nM.

Take B31: the half-inhibitory concentration (IC50) is less than 500 nM.

As for B32, the concentration for half-maximal inhibition (IC50) is less than 500 nM.

In turn, B33 yielded a half-inhibitory concentration (IC50) of less than 500 nM.

The values above are taken from US7091311.
